Assay [1] has as its target T1, full-length human FRα, on 293E cells (human, UniProt P15328 25-234).
T1 construct: also called folate receptor alpha; FOLR1
The assay can be described thus: flow cytometry, 293E cells expressing FRα.
Method: Antibodies were diluted in 50 μl FB (PBS 2% FCS) 1:3 from stock in wells of a 96 V-well plate, and cells added on top. The cells were then left on ice for 30 minutes for the antibodies to bind. The cells were then washed twice in FB, and incubated in 50 μl FB containing 2 μg/ml goat anti-human Alexa647 antibody (Jackson Immunoresearch). The cells were then left on ice for a further 20 minutes, washed twice in FB, resuspended in 100 μl FB and analyzed on a BD Fortessa™ X20. The subsequent data files were analyzed using FlowJo™ and Prism 7 (GraphPad).

In assay [2] the target is T2, purified human monomeric 4-1BB (human, UniProt Q07011 24-186).
T2 construct: the assay used the 4-1BB part released by Factor Xa with the Fc removed; also called h4-1BB; human 4-1BB
The assay can be described thus: SPR, Ab captured, monomeric 4-1BB injected.
Method: The anti-human Fc surface was prepared on a CMS Series S sensorchip by standard amine coupling methods as described by the manufacturer (GE Healthcare). Briefly, immediately after EDC/NHS activation, a 25 μg/mL solution of anti-human Fc in 10 mM NaOAc pH 4.5 was injected at a flow rate of 10 μL/min for 420 s until approximately 2000 resonance units (RUs) were immobilized on all four flow cells. The remaining active groups were quenched by a 420 s injection of 1M ethanolamine at 10 μL/min.
Antibodies for analysis were captured onto the anti-Fc surface by injecting 5 μg/mL solutions at a flow rate of 10 μL/min for 60 s. Using single-cycle kinetics, five concentrations of a two-fold dilution series of 4-1BB starting at 40 nM (for both supernatant and purified antibody runs) with a blank buffer control were sequentially injected at 40 μL/min for 180 s with a 600 s dissociation phase, resulting in a set of sensorgrams with a buffer blank reference. Experiments were performed at a constant temperature of 25° C. The anti-human Fc surfaces were regenerated to prepare for the next injection cycle by one pulse of 10 mM Glycine/HCl pH 1.5 for 120 s at 40 μL/min. Blank-subtracted sensorgrams were analyzed using Biacore™ T200 Evaluation Software v3.0. The blank-subtracted sensorgrams were then fit to the 1:1 Langmuir binding model.
Variants purified by SEC were assessed for binding to human 4-1BB.

These results are taken from patent US20230052369A1 (Zymeworks, published 2023).

T1 sequence (P15328 25-234 limits assumed): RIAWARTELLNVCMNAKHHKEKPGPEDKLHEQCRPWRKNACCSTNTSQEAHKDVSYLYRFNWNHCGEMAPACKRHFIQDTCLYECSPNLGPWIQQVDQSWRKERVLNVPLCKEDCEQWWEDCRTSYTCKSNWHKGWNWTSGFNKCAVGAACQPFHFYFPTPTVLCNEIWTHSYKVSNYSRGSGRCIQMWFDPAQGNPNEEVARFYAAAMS
T2 sequence (Q07011 other isoform, or with tags, fused parts or gaps limits assumed): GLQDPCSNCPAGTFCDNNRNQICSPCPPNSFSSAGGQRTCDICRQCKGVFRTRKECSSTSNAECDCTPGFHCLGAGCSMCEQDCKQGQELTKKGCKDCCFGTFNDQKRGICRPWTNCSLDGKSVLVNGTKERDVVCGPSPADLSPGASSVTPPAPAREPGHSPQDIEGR

B1: v23660 (bispecific antibody, human IgG1, kappa, L234A L235A)
heavy 1: QVQLKESGPGLVAPSQSLSITCTVSGFSLTSYAISWVRQPPGKGLEWLGVIWPGGGTNYNSALKSRLSISKDNSKSQVFLKMNSLQTDDTARYYCARGTGTWYFDVWGAGTTVTVSSASTKGPSVFPLAPSSKSTSGGTAALGCLVKDYFPEPVTVSWNSGALTSGVHTFPAVLQSSGLYSLSSVVTVPSSSLGTQTYICNVNHKPSNTKVDKKVEPKSCDKTHTCPPCPAPEAAGGPSVFLFPPKPKDTLMISRTPEVTCVVVSVSHEDPEVKFNWYVDGVEVHNAKTKPREEQYNSTYRVVSVLTVLHQDWLNGKEYKCKVSNKALPAPIEKTISKAKGQPREPQVYVYPPSRDELTKNQVSLTCLVKGFYPSDIAVEWESNGQPENNYKTTPPVLDSDGSFALVSKLTVDKSRWQQGNVFSCSVMHEALHNHYTQKSLSLSPGGGGGDIVMTQTPASVEAAVGGTVTIKCQASQSIYSSLAWYQQKPGQSPKLLIYDASHLASGVPSRFSGSRYGTEFTLTISGVQCDDAATYYCQGGWYSSAATYVPNTFGGGTEVVVKGGGGSGGGGSGGGGSQEQLVESGGGLVQPEGSLTLTCKASGFTISNNYYMCWVRQAPGKGLEWIACIYGGISGRTYYASWAKGRFTISKTSSTTVTLQMTSLTAADTATYFCVRGYVGTSNLWGPGTLVTVSS
heavy 2: QVQLKESGPGLVAPSQSLSITCTVSGFSLTSYAISWVRQPPGKGLEWLGVIWPGGGTNYNSALKSRLSISKDNSKSQVFLKMNSLQTDDTARYYCARGTGTWYFDVWGAGTTVTVSSASTKGPSVFPLAPSSKSTSGGTAALGCLVKDYFPEPVTVSWNSGALTSGVHTFPAVLQSSGLYSLSSVVTVPSSSLGTQTYICNVNHKPSNTKVDKKVEPKSCDKTHTCPPCPAPEAAGGPSVFLFPPKPKDTLMISRTPEVTCVVVSVSHEDPEVKFNWYVDGVEVHNAKTKPREEQYNSTYRVVSVLTVLHQDWLNGKEYKCKVSNKALPAPIEKTISKAKGQPREPQVYVLPPSRDELTKNQVSLLCLVKGFYPSDIAVEWESNGQPENNYLTWPPVLDSDGSFFLYSKLTVDKSRWQQGNVFSCSVMHEALHNHYTQKSLSLSPG
light: DIQMTQTTSSLSASLGDRVTISCSASQGISNYLNWYQQKPDGTVKLLIYYTSSLHSGVPSRFSGSGSGTDYSLTISNLEPEDIATYYCQQYSDLPWTFGGGTKLEIKRTVAAPSVFIFPPSDEQLKSGTASVVCLLNNFYPREAKVQWKVDNALQSGNSQESVTEQDSKDSTYSLSSTLTLSKADYEKHKVYACEVTHQGLSSPVTKSFNRGEC
notes: also called 6B3 x 8K22 (VLVH) 2x1
In the case of B1, in assay [1], the binding result was “binds”. The same molecule came in with a Kd in assay [2] of 364 nM.

B2: v23651 (bispecific antibody, human IgG1, kappa, L234A L235A)
heavy 1: QVQLKESGPGLVAPSQSLSITCTVSGFSLTTYAISWVRQPPGKGLEWLGIIWPGGGTNYNSALKSRLSISKDNSRSQVFLKMNSLQTDDTARYYCARGAGTWYFDVWGAGTTVTVSSASTKGPSVFPLAPSSKSTSGGTAALGCLVKDYFPEPVTVSWNSGALTSGVHTFPAVLQSSGLYSLSSVVTVPSSSLGTQTYICNVNHKPSNTKVDKKVEPKSCDKTHTCPPCPAPEAAGGPSVFLFPPKPKDTLMISRTPEVTCVVVSVSHEDPEVKFNWYVDGVEVHNAKTKPREEQYNSTYRVVSVLTVLHQDWLNGKEYKCKVSNKALPAPIEKTISKAKGQPREPQVYVYPPSRDELTKNQVSLTCLVKGFYPSDIAVEWESNGQPENNYKTTPPVLDSDGSFALVSKLTVDKSRWQQGNVFSCSVMHEALHNHYTQKSLSLSPGGGGGQVQLVQSGAEVVKPGASVKISCKASGYTFTGYFMNWVKQSPGQSLEWIGRIHPYDGDTFYNQKFQGKATLTVDKSSNTAHMELLSLTSEDFAVYYCTRYDGSRAMDYWGQGTTVTVSSGGGGSGGGGSGGGGSDIVLTQSPLSLAVSLGQPAIISCKASQSVSFAGTSLMHWYHQKPGQQPRLLIYRASNLEAGVPDRFSGSGSKTDFTLTISPVEAEDAATYYCQQSREYPYTFGGGTKLEIK
heavy 2: QVQLKESGPGLVAPSQSLSITCTVSGFSLTTYAISWVRQPPGKGLEWLGIIWPGGGTNYNSALKSRLSISKDNSRSQVFLKMNSLQTDDTARYYCARGAGTWYFDVWGAGTTVTVSSASTKGPSVFPLAPSSKSTSGGTAALGCLVKDYFPEPVTVSWNSGALTSGVHTFPAVLQSSGLYSLSSVVTVPSSSLGTQTYICNVNHKPSNTKVDKKVEPKSCDKTHTCPPCPAPEAAGGPSVFLFPPKPKDTLMISRTPEVTCVVVSVSHEDPEVKFNWYVDGVEVHNAKTKPREEQYNSTYRVVSVLTVLHQDWLNGKEYKCKVSNKALPAPIEKTISKAKGQPREPQVYVLPPSRDELTKNQVSLLCLVKGFYPSDIAVEWESNGQPENNYLTWPPVLDSDGSFFLYSKLTVDKSRWQQGNVFSCSVMHEALHNHYTQKSLSLSPG
light: DIQMTQSTSSLSASVGDRVTISCSASQGISNYLNWYQQKPDGTVKLLIYYTSSLHSGVPSRFSGSGSGTDYSLTISNLEPEDIATYYCQQYSKFPWTFGGGTKLEIKRTVAAPSVFIFPPSDEQLKSGTASVVCLLNNFYPREAKVQWKVDNALQSGNSQESVTEQDSKDSTYSLSSTLTLSKADYEKHKVYACEVTHQGLSSPVTKSFNRGEC
notes: also called 1C8 x Mirvetuximab (scFv) 2x1
Regarding B2, the binding result in assay [1] was “binds”.

B3: v23656 (bispecific antibody, human IgG1, kappa, L234A L235A)
heavy 1: QVQLKESGPGLVAPSQSLSITCTVSGFSLTTYAISWVRQPPGKGLEWLGIIWPGGGTNYNSALKSRLSISKDNSRSQVFLKMNSLQTDDTARYYCARGAGTWYFDVWGAGTTVTVSSASTKGPSVFPLAPSSKSTSGGTAALGCLVKDYFPEPVTVSWNSGALTSGVHTFPAVLQSSGLYSLSSVVTVPSSSLGTQTYICNVNHKPSNTKVDKKVEPKSCDKTHTCPPCPAPEAAGGPSVFLFPPKPKDTLMISRTPEVTCVVVSVSHEDPEVKFNWYVDGVEVHNAKTKPREEQYNSTYRVVSVLTVLHQDWLNGKEYKCKVSNKALPAPIEKTISKAKGQPREPQVYVYPPSRDELTKNQVSLTCLVKGFYPSDIAVEWESNGQPENNYKTTPPVLDSDGSFALVSKLTVDKSRWQQGNVFSCSVMHEALHNHYTQKSLSLSPGGGGGDIVMTQTPASVEAAVGGTVTIKCQASQSIYSSLAWYQQKPGQSPKLLIYDASHLASGVPSRFSGSRYGTEFTLTISGVQCDDAATYYCQGGWYSSAATYVPNTFGGGTEVVVKGGGGSGGGGSGGGGSQEQLVESGGGLVQPEGSLTLTCKASGFTISNNYYMCWVRQAPGKGLEWIACIYGGISGRTYYASWAKGRFTISKTSSTTVTLQMTSLTAADTATYFCVRGYVGTSNLWGPGTLVTVSS
heavy 2: QVQLKESGPGLVAPSQSLSITCTVSGFSLTTYAISWVRQPPGKGLEWLGIIWPGGGTNYNSALKSRLSISKDNSRSQVFLKMNSLQTDDTARYYCARGAGTWYFDVWGAGTTVTVSSASTKGPSVFPLAPSSKSTSGGTAALGCLVKDYFPEPVTVSWNSGALTSGVHTFPAVLQSSGLYSLSSVVTVPSSSLGTQTYICNVNHKPSNTKVDKKVEPKSCDKTHTCPPCPAPEAAGGPSVFLFPPKPKDTLMISRTPEVTCVVVSVSHEDPEVKFNWYVDGVEVHNAKTKPREEQYNSTYRVVSVLTVLHQDWLNGKEYKCKVSNKALPAPIEKTISKAKGQPREPQVYVLPPSRDELTKNQVSLLCLVKGFYPSDIAVEWESNGQPENNYLTWPPVLDSDGSFFLYSKLTVDKSRWQQGNVFSCSVMHEALHNHYTQKSLSLSPG
light: DIQMTQSTSSLSASVGDRVTISCSASQGISNYLNWYQQKPDGTVKLLIYYTSSLHSGVPSRFSGSGSGTDYSLTISNLEPEDIATYYCQQYSKFPWTFGGGTKLEIKRTVAAPSVFIFPPSDEQLKSGTASVVCLLNNFYPREAKVQWKVDNALQSGNSQESVTEQDSKDSTYSLSSTLTLSKADYEKHKVYACEVTHQGLSSPVTKSFNRGEC
notes: Two 4-1BB Fabs, one FRα scFv at the C-terminus of one heavy chain; also called 1C8 x 8K22 (VLVH) 2x1
Take B3: the binding result in assay [1] was “binds”. Moreover, in assay [2], the affinity, expressed as Kd, was 480 nM.

B4: v23658 (bispecific antibody, human IgG1, kappa, L234A L235A)
heavy 1: QVQLKESGPGLVAPSQSLSITCTVSGFSLTSYAINWVRQPPGKGLEWLGVLWPGGGTNYNSALKSRLSISKDNSKSQVFLKMNSLQTDDTARYYCARGSGTWYFDVWGAGTTVTVSSASTKGPSVFPLAPSSKSTSGGTAALGCLVKDYFPEPVTVSWNSGALTSGVHTFPAVLQSSGLYSLSSVVTVPSSSLGTQTYICNVNHKPSNTKVDKKVEPKSCDKTHTCPPCPAPEAAGGPSVFLFPPKPKDTLMISRTPEVTCVVVSVSHEDPEVKFNWYVDGVEVHNAKTKPREEQYNSTYRVVSVLTVLHQDWLNGKEYKCKVSNKALPAPIEKTISKAKGQPREPQVYVYPPSRDELTKNQVSLTCLVKGFYPSDIAVEWESNGQPENNYKTTPPVLDSDGSFALVSKLTVDKSRWQQGNVFSCSVMHEALHNHYTQKSLSLSPGGGGGDIVMTQTPASVEAAVGGTVTIKCQASQSIYSSLAWYQQKPGQSPKLLIYDASHLASGVPSRFSGSRYGTEFTLTISGVQCDDAATYYCQGGWYSSAATYVPNTFGGGTEVVVKGGGGSGGGGSGGGGSQEQLVESGGGLVQPEGSLTLTCKASGFTISNNYYMCWVRQAPGKGLEWIACIYGGISGRTYYASWAKGRFTISKTSSTTVTLQMTSLTAADTATYFCVRGYVGTSNLWGPGTLVTVSS
heavy 2: QVQLKESGPGLVAPSQSLSITCTVSGFSLTSYAINWVRQPPGKGLEWLGVLWPGGGTNYNSALKSRLSISKDNSKSQVFLKMNSLQTDDTARYYCARGSGTWYFDVWGAGTTVTVSSASTKGPSVFPLAPSSKSTSGGTAALGCLVKDYFPEPVTVSWNSGALTSGVHTFPAVLQSSGLYSLSSVVTVPSSSLGTQTYICNVNHKPSNTKVDKKVEPKSCDKTHTCPPCPAPEAAGGPSVFLFPPKPKDTLMISRTPEVTCVVVSVSHEDPEVKFNWYVDGVEVHNAKTKPREEQYNSTYRVVSVLTVLHQDWLNGKEYKCKVSNKALPAPIEKTISKAKGQPREPQVYVLPPSRDELTKNQVSLLCLVKGFYPSDIAVEWESNGQPENNYLTWPPVLDSDGSFFLYSKLTVDKSRWQQGNVFSCSVMHEALHNHYTQKSLSLSPG
light: DIQMTQTTSSLSASLGDRVTFSCSASQGISNYLNWYQQKPDGTVKLLIYYTSSLHLGVPSRFSGSGSGTDYSLTISNLEPEDIATYYCQQYSKLPWTFGGGTKLEIKRTVAAPSVFIFPPSDEQLKSGTASVVCLLNNFYPREAKVQWKVDNALQSGNSQESVTEQDSKDSTYSLSSTLTLSKADYEKHKVYACEVTHQGLSSPVTKSFNRGEC
notes: also called 4E6 x 8K22 (VLVH) 2x1
As for B4, the binding result in assay [1] is “binds”. Also, in assay [2], the affinity, expressed as Kd, was 499 nM.
